Target: the molecule itself
Assay: SAXS

B1: Saccharomyces cerevisiae Rnt1p (intact protein) (enzyme, UniProt Q02555 1-471, looked up)
chain: MGSKVAGKKKTQNDNKLDNENGSQQRENINTKTLLKGNLKISNYKYLEVIQLEHAVTKLVESYNKIIELSPNLVAYNEAVNNQDRVPVQILPSLSRYQLKLAAELKTLHDLKKDAILTEITDYENEFDTEQKQPILQEISKADMEKLEKLEQVKREKREKIDVNVYENLNEKEDEEEDEGEDSYDPTKAGDIVKATKWPPKLPEIQDLAIRARVFIHKSTIKDKVYLSGSEMINAHNERLEFLGDSILNSVMTLIIYNKFPDYSEGQLSTLRMNLVSNEQIKQWSIMYNFHEKLKTNFDLKDENSNFQNGKLKLYADVFEAYIGGLMEDDPRNNLPKIRKWLRKLAKPVIEEATRNQVALEKTDKLDMNAKRQLYSLIGYASLRLHYVTVKKPTAVDPNSIVECRVGDGTVLGTGVGRNIKIAGIRAAENALRDKKMLDFYAKQRAAIPRSESVLKDPSQKNKKRKFSDTS
With B1 as the protein, how does the “stoichiometry N” value read?
The value was 2.
